Laboratory results: article PMC12204343, “Regulatory Role of Serine59 in the Oligomeric Dynamics and Chaperone Function of αB-Crystallin” (Research Square, 2025)
Positions count from the first letter of the chain named. Names may count otherwise.

B1: αB-crystallin ΔS59 (deletion of Serine 59) (natural protein, human, UniProt P02511 1-175, looked up)
chain: MDIAIHHPWIRRPFFPFHSPSRLFDQFFGEHLLESDLFPTSTSLSPFYLRPPSFLRAPWFDTGLSEMRLEKDRFSVNLDVKHFSPEELKVKVLGDVIEVHGKHEERQDEHGFISREFHRKYRIPADVDPLTITSSLSSDGVLTVNGPRKQVSGPERTIPITREEKPAVTAAPKK
notes: αB-crystallin, human, with Serine 59 deleted; Made by site-directed mutagenesis; also called αB-ΔS59; source: E. coli BL21(DE3)pLysS, purified (Q-Sepharose, Superdex and Superose 6 size exclusion, ammonium sulphate)
B2: wild-type αB-crystallin (natural protein, human, UniProt P02511 1-175, looked up)
chain: MDIAIHHPWIRRPFFPFHSPSRLFDQFFGEHLLESDLFPTSTSLSPFYLRPPSFLRAPSWFDTGLSEMRLEKDRFSVNLDVKHFSPEELKVKVLGDVIEVHGKHEERQDEHGFISREFHRKYRIPADVDPLTITSSLSSDGVLTVNGPRKQVSGPERTIPITREEKPAVTAAPKK
notes: αB-crystallin, human, wild type; forms large polydisperse oligomers; no tag is mentioned; also called αB-WT; WT-αB; source: E. coli BL21(DE3)pLysS, purified (Q-Sepharose, Superdex and Superose 6 size exclusion, ammonium sulphate)
B3: αB-crystallin S59D (phosphomimetic mutant) (natural protein, human, UniProt P02511 1-175, looked up)
chain: B2 chain with S59D
notes: αB-crystallin, human, with the phosphomimetic substitution S59D; Made by site-directed mutagenesis; also called αB-S59D; αBS59D; source: E. coli BL21(DE3)pLysS, purified (Q-Sepharose, Superdex and Superose 6 size exclusion, ammonium sulphate)
B4: αB-crystallin S59A (natural protein, human, UniProt P02511 1-175, looked up)
chain: B2 chain with S59A
notes: αB-crystallin, human, with the substitution S59A; Made by site-directed mutagenesis; called the control mutant; also called αB-S59A; source: E. coli BL21(DE3)pLysS, purified (Q-Sepharose, Superdex and Superose 6 size exclusion, ammonium sulphate)
B5: αB-crystallin with residues 54–61 deleted (natural protein, human, UniProt P02511 1-175, looked up)
chain: MDIAIHHPWIRRPFFPFHSPSRLFDQFFGEHLLESDLFPTSTSLSPFYLRPPSDTGLSEMRLEKDRFSVNLDVKHFSPEELKVKVLGDVIEVHGKHEERQDEHGFISREFHRKYRIPADVDPLTITSSLSSDGVLTVNGPRKQVSGPERTIPITREEKPAVTAAPKK
notes: αB-crystallin, human, with residues 54–61 deleted; also called αB-Δ54–61; αBΔ54–61

Legend:
[1] = target: αB-crystallin (UniProt P02511); assay: SEC-MALS of homo-oligomer mass; TEM; conditions: reference: wild type; sites S59
[2] = target: the molecule itself; assay: SEC-MALS; HPLC coupled with MALS; proteins (0.15 mg in 0.05 mL) incubated at 37°C for 1 hour before analysis; self-association into oligomers
[3] = target: Luciferase (UniProt P08659 1-550 = luciferase); assay: cell-based or functional assay
Chain of Luciferase (P08659 whole entry): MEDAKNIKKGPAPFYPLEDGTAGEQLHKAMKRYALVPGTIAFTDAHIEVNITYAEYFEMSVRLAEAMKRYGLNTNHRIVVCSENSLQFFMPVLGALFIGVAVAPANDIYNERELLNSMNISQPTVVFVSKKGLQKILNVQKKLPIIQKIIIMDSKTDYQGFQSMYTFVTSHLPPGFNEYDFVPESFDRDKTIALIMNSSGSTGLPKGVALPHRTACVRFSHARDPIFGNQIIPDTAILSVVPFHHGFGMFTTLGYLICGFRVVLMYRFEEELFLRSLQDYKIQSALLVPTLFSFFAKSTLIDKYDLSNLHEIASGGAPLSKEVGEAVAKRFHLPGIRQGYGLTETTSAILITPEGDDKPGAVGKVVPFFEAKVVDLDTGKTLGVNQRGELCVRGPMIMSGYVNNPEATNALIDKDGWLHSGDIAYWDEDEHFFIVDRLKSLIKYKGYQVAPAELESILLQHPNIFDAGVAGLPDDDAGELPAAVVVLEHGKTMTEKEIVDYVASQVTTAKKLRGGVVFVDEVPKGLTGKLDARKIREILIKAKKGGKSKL

[4] = target: Lysozyme (UniProt P00698 19-147); assay: cell-based or functional assay
Chain of Lysozyme (P00698 19-147): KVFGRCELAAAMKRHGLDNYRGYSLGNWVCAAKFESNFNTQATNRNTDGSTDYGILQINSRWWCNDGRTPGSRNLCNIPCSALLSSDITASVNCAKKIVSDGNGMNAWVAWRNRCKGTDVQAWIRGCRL

[5] = target: T1, Alcohol dehydrogenase (UniProt P00330 1-348); assay: cell-based or functional assay
T1 sequence (looked up): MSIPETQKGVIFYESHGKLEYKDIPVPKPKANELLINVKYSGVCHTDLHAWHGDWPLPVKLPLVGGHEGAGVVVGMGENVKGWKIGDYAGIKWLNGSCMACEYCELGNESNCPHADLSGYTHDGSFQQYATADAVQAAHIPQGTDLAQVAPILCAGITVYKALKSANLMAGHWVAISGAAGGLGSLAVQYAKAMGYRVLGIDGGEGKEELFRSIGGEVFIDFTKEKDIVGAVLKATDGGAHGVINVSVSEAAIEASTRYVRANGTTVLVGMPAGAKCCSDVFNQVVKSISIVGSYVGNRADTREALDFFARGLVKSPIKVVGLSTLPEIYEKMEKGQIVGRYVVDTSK

[6] = target: the molecule itself; assay: negative-stain transmission electron microscopy; 0.05 mg/mL on glow-discharged carbon grids, 2% uranyl acetate; oligomers of the chaperone protein alone

| Molecule | other: average oligomeric mass [1] | binding result [2] | EC50 of suppression of luciferase (0.5 μM) aggregation, light scattering at 360 nm, 90 min, PBS, 37°C [3] [µM] | protection against DTT-induced lysozyme (10 μM) aggregation, 2.5 μM chaperone, PBS, 2 mM DTT, 37°C, 6 hours [4] [%] | EC50 of suppression of ADH (2.5 μM) aggregation, light scattering at 360 nm, 90 min, PBS + 50 mM EDTA, 37°C [5] [µM] | binding result [6] | chaperone efficiency against ADH (2.5 μM) aggregation relative to αB-S59D, light scattering at 360 nm, 90 min, PBS + 50 mM EDTA, 37°C [5] [fold] |
| --- | --- | --- | --- | --- | --- | --- | --- |
| αB-crystallin (from UniProt P02511) ΔS59 | same; reference 579 | – | – | – | – | – | – |
| αB-crystallin (from UniProt P02511) S59D | weaker; reference 579 | – | – | – | – | – | – |
| B1 | – | binds | 8.3 | 60 | 1.2 | – | – |
| B2 | – | binds | 4.3 | ~52 | 1 | – | – |
| B3 | – | binds | 1.1 | – | 0.5 | – | – |
| B4 | stronger; reference 579 | binds | 13.7 | 84 | 1.4 | – | – |
| B5 | – | – | 1.2 | > 95 | – | binds | 1.6 |
